Results on nine molecules are retold here after patent US20120100152A1 (Sanofi, published 2012).

The target in experiment [1] is T1, human CD52 (wildtype) (human, not fully specified (residue 3); also: N-linked glycan, GPI anchor).
T1 construct: also called huCD52; hCD52
T1 chain: GQNDTSQTSSPS
As to the kind of experiment: flow cytometry, huCD52 transgenic mouse CD4+ T cells, FITC goat F(ab)2 anti-human Fc gamma secondary, GraphPad Prism fit (Example 29). Background: A flow cytometer gives signals particle by particle.
Experimental: (§1) The EC₅₀ values of chimeric and humanized anti-CD52 antibodies were estimated using CD4+ T cells isolated from healthy donor PBMCs obtained from commercial sources (Bioreclamation, NY, USA). CD4+ T cells were isolated by negative selection using an EasySep kit (Stem Cell Technologies). […] Briefly, human CD4+ T cells were isolated from 50 ml of peripheral blood from healthy volunteers (Bioreclamation), and huCD52 transgenic mouse CD4+ T cells were isolated from spleen tissue. Cells were rinsed with PBS/5% FBS and deposited into round-bottom 96 well plates at 1×10⁵ cells per well. Primary antibody staining was done with an 8 point serial dilution (1:3) of each anti-CD52 chimeric and humanized antibody starting at 100 μg/mL. […] Cells were washed 3 times in ice-cold PBS/5% FBS before and after each incubation. Cells were fixed with PBS containing 2% methanol-free paraformaldehyde and evaluated by flow cytometry. The flow cytometry data was analyzed using GraphPad Prism software to determine an EC₅₀ value with 95% confidence interval.

The target in experiment [2] is T1, human CD52 (wildtype). As to the kind of experiment: flow cytometry, human CD4+ T cells from PBMC, FITC goat F(ab)2 anti-human Fc gamma secondary, GraphPad Prism fit (Example 29).
Experimental: as §1
The target in experiment [3] is T1, human CD52 (wildtype). Kind of experiment: flow cytometry, CHO-CD52 cells, 12-point titration.
Experimental: The EC50 values of selected anti-CD52 antibodies were estimated using CHO cells engineered to express CD52. CHO-CD52 cells were trypsinized in 0.25% trypsin, collected, and rinsed with PBS/5% FBS. Cells were then deposited into round-bottom 96 well plates at 1E5 cells per well. Primary antibody staining was done with a 12 point serial dilution (1:2) of each anti-CD52 chimeric antibody starting at 50 μg/mL. […] Cells were washed 3 times in ice-cold PBS/5% FBS before and after each incubation. Cells were fixed with PBS containing 2% methanol-free paraformaldehyde and evaluated by flow cytometry.
In experiment [4] the target is T2, MUT 10 alanine-scanning mutant hCD52 peptide (human).
T2 construct: Synthetic
T2 peptide: GQNDTSQTSAPSADC
Kind of experiment: Biacore T100 SPR, antibody immobilized, peptide injected at up to 500 nM.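 Also: Amine-coupled antibody (10,000 RU), 25 °C in HBS-EP+ pH 7.4, 5 min association then 5 min dissociation, 1:1 fit with blank flow cell and 0 nM double-referencing.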 For orientation: Surface plasmon resonance follows binding to a sensor surface in real time, without labels.
Text: (§2) The carboxymethyl dextran surface was activated using a 1:1 mixture of 0.1M N-hydroxysuccinimide (NHS) and 0.4M N-ethyl-N′-(3-dimethylaminopropyl)carbodiimide hydrochloride (EDC), allowing the surface to bind reactive amine groups on the antibodies. […] Following antibody immobilization, the reactive sensor chip surface was quenched using 1M ethanolamine hydrochloride/NaOH pH 8.5. One flow cell on each chip was a blank reference surface, and subsequent flow cells were immobilized with 10,000 RU of antibody.
(§3) Peptides were diluted into the assay running buffer, HBS-EP+ (10 mM HEPES, 150 mM NaCl, 0.05% P20 surfactant, 3 mM EDTA, pH 7.4). Duplicates of 100 nM samples were included. […] The T100 instrument sample chamber and assay temperatures were set to 4° C. and 25° C., respectively. The human CD52 peptide samples were injected for five minutes at a 50 μl/min flow rate to measure association, and washed in HBS-EP+ for five minutes at a 50 μl/min flow rate to measure dissociation. The antibody surface was stripped of any remaining bound peptide using a sixty second injection of 10 mM glycine-HCl pH 2.0 at a 50 μl/min flow rate. Analysis was performed using Biacore T100 Kinetics Evaluation software v2.0 (GE Healthcare). Data was fit to a 1:1 model with reference flow cell and 0 nM concentration subtraction (double-reference subtraction).

Experiment [5] concerns the target T3, MUT 2 alanine-scanning mutant hCD52 peptide (human).
T3 construct: Synthetic
T3 peptide: GANDTSQTSSPSADC
Described as above.
Text: as §2, §3

Experiment [6] addresses T4, WT 1 wildtype human CD52 peptide (human, not fully specified (residue 15); printed as GQNDTSQTSSPSADK-Biotin).
T4 construct: Synthetic
T4 peptide: GQNDTSQTSSPSADK-{Biotin′}
Described as above.
Text: as §2, §3

The target in experiment [7] is T5, MUT 1 alanine-scanning mutant hCD52 peptide (human).
T5 construct: Synthetic
T5 peptide: AQNDTSQTSSPSADC
The description is as above.
Text: as §2, §3

Experiment [8] has as its target T6, MUT 5 alanine-scanning mutant hCD52 peptide (human).
T6 construct: Synthetic
T6 peptide: GQNDASQTSSPSADC
The description is as above.
Text: as §2, §3

The target in experiment [9] is T7, MUT 12 alanine-scanning mutant hCD52 peptide (human).
T7 construct: Synthetic
T7 peptide: GQNDTSQTSSPAADC
The experiment is described as above.
Text: as §2, §3

The target in experiment [10] is T8, MUT 8 alanine-scanning mutant hCD52 peptide (human).
T8 construct: Synthetic
T8 peptide: GQNDTSQASSPSADC
Described as above.
Text: as §2, §3

Experiment [11] has as its target T9, MUT 9 alanine-scanning mutant hCD52 peptide (human).
T9 construct: Synthetic
T9 peptide: GQNDTSQTASPSADC
The experiment is described as above.
Text: as §2, §3

The target of experiment [12] is T10, MUT 7 alanine-scanning mutant hCD52 peptide (human).
T10 construct: Synthetic
T10 peptide: GQNDTSATSSPSADC
The experiment is described as above.
Text: as §2, §3

Experiment [13] deals with T11, MUT 6 alanine-scanning mutant hCD52 peptide (human).
T11 construct: Synthetic
T11 peptide: GQNDTAQTSSPSADC
Described as above.
Text: as §2, §3

Experiment [14] deals with T12, MUT 3 alanine-scanning mutant hCD52 peptide (human).
T12 construct: Synthetic
T12 peptide: GQADTSQTSSPSADC
The experiment is described as above.
Text: as §2, §3

Experiment [15] concerns the target T1, human CD52 (wildtype). As to the kind of experiment: flow cytometry, CD4+ T cells, 8-point titration.
Experimental: as §1
Experiment [16] deals with T13, MUT 4 alanine-scanning mutant hCD52 peptide (human).
T13 construct: Synthetic
T13 peptide: GQNATSQTSSPSADC
Kind of experiment: Biacore T100 SPR, antibody immobilized, peptide injected at up to 500 nM.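 Also: Amine-coupled antibody (10,000 RU), 25 °C in HBS-EP+ pH 7.4, 5 min association then 5 min dissociation, 1:1 fit with blank flow cell and 0 nM double-referencing.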
Text: as §2, §3

Experiment [17] concerns the target T9, MUT 9 alanine-scanning mutant hCD52 …. As to the kind of experiment: Biacore T100, antibody immobilised on a CM5 chip, peptide injected.
Text: as §2, §3
In experiment [18] the target is T1, human CD52 (wildtype). As to the kind of experiment: flow cytometry, CHO-CD52 cells.

Substitutions are numbered along the chain they refer to. In names and notes the source's numbering stands. Primed or numbered codes have the meaning given here. Ends that are not written are not given here. Biotin′ = not defined here

B1: chimeric 12G6 antibody (antibody, human IgG1, V domains shown)
VH: EVQLEESGGGLVQPGGSMKLSCVASGFPFSNYWMNWVRQSPEKGLEWVAQIRLKSNNYATHYAESVKGRFTIARDDSKSSVYLQMNNLRAEDTGIYYCTPIDYWGQGTTLTVSS
VL: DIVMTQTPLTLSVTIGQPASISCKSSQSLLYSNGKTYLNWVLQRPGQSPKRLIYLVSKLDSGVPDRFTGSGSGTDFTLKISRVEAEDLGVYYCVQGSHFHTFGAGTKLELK
notes: also called 12G6-Chi; 12G6-chimeric
For B1, the EC50 stood at 0.0344 µM with human CD52 (wildtype) [1], 0.0224 µM in the experiment with human CD52 (wildtype) [2] and 0.95 mg/L with human CD52 (wildtype) [3].

B2: chimeric 2C3 antibody (antibody, human IgG1, V domains shown)
VH: B1 VH with Q3K, P28T, S30N, N31T, A73S, S79N, I101V, Y103F
VL: DIVITQTPLTLSVTIGQPVSISCKSSQSLLYSNGKTYLNWLLQRPGQSPKRLIYLVSKLDSGVPDRFTGSGSGTDFTLKISRVEAEDLGVYYCVQGTHLHTFGAGTKLELK
notes: also called 2C3-Chi; 2C3-chimeric
On to B2, for which the concentration for a half-maximal effect (EC50) with human CD52 (wildtype) [1] stood at 0.0308 µM; in the experiment with human CD52 (wildtype) [2] it was 0.0259 µM; with human CD52 (wildtype) [3], 1.32 mg/L.

B3: humanized antibody 9D9-H16/K13 (antibody, V domains shown)
VH: EVQLLESGGGLVQPGGSLRLSCAASGFTFSDAWMDWVRQAPGKGLELVSEIRNKAKNHATYYAESVKGRFTISRDNSKNTLYLQMNSLRAEDTAVYYCTTLDSWGQGTTVTVSS
VL: DIVMTQTPLSLSVTPGQPASISCKSSQSLLDSDGKTYLNWLLQKPGQSPQRLIYLVSALDSGVPDRFSGSGSGTDFTLKISRVEAEDVGVYYCWQGTHFPWTFGQGTKLEIKR
On to B3, for which the binding result in experiment [4], in [5], in [6], in [7], in experiment [8] and in experiment [9] was “binds” in each case. For the same molecule, the binding result in experiment [10], in experiment [11], in experiment [12], in experiment [13] and in experiment [14] was “binds” each time.

B4: humanized antibody 12G6-SFD1/K11 (antibody, human IgG1, V domains shown)
VH: EVQLVESGGGLVQPGGSLRLSCAASGFPFSNYWMNWVRQAPGKGLEWVGQIRLKSNNYATHYAESVKGRFTISRDDSKNSLYLQMNSLKTEDTAVYYCTPIDYWGQGTTVTVSS
VL: DIVMTQTPLSLSVTPGQPASISCKSSQSLLYSNGKTYLNWVLQKPGQSPKRLIYLVSKLDSGVPDRFSGSGSGTDFTLKISRVEAEDVGVYYCVQGSHFHTFGQGTKLEIK
notes: also called 12G6 K11; 12G6 hu
Consider B4, for which the EC50 with human CD52 (wildtype) [1] is 0.0132 µM; with human CD52 (wildtype) [2], 0.0073 µM.

B5: humanized antibody 2C3-SFD1/K12 (antibody, V domains shown)
VH: B4 VH with P28T, S30N, N31T, I101V, Y103F
VL: DIVMTQTPLSLSVTPGQPASISCKSSQSLLYSNGKTYLNWLLQKPGQSPQRLIYLVSKLDSGVPDRFSGSGSGTDFTLKISRVEAEDVGVYYCVQGTHLHTFGQGTRLEIKR
notes: also called 2C3 K12; 2C3 unmodified
B5: the figures for the half-maximal effective concentration (EC50) with human CD52 (wildtype) [1] and with human CD52 (wildtype) [2] were 0.0136 µM and 0.011 µM, respectively. Also, the “fold lower EC50 than Campath-1H®” value in the experiment with human CD52 (wildtype) [15] came out at 2 fold. Besides, the binding result in experiment [4], in [16], in experiment [5], in experiment [6], in [7] and in experiment [8] was “binds” each time. For the same molecule, the binding result in experiment [9], in [11], in experiment [13] and in [14] was “binds” each time.

B6: humanized antibody 12G6-SFD1/K12 (antibody, V domains shown)
VH: B4 VH
VL: B5 VL with L41V, T97S, L99F, R107K
notes: also called 12G6 K12; GLD52
As to B6, in the experiment with human CD52 (wildtype) [2], a half-maximal response (EC50) required 0.0106 µM. The binding result in experiment [17], in [4], in experiment [16], in experiment [5], in experiment [6] and in experiment [7] was “binds” throughout. The binding result in experiment [8], in experiment [9], in [13] and in [14] was “binds” throughout.

B7: Campath-1H® (alemtuzumab) (antibody, IgG1, V domains shown)
VH: QVQLQESGPGLVRPSQTLSLTCTVSGFTFTDFYMNWVRQPPGRGLEWIGFIRDKAKGYTTEYNPSVKGRVTMLVDTSKNQFSLRLSSVTAADTAVYYCAREGHTAAPFDYWGQGSLVTVSS
VL: DIQMTQSPSSLSASVGDRVTITCKASQNIDKYLNWYQQKPGKAPKLLIYNTNNLQTGVPSRFSGSGSGTDFTFTISSLQPEDIATYYCLQHISRPRTFGQGTKVEIKR
notes: Humanized IgG1/kappa; also called C1H; C-1H; copies: 2 + 2
Take B7: the EC50 was found to be 0.0251 µM with human CD52 (wildtype) [1], 0.0219 µM in the experiment with human CD52 (wildtype) [2] and 1.36 mg/L in the experiment with human CD52 (wildtype) [3].

B8: humanized antibody 4B10-H1/K1 (antibody, V domains shown)
VH: EVQLVESGGGLVQPGGSLRLSCAASGFTFSDYYMSWVRQAPGKGLEWVGFIRNKANGYTTEYSASVKGRFTISRDDSKNSLYLQMNSLKTEDTAVYYCARYIWFDYWGQGTTVTVSS
VL: DIVMTQTPLSLSVTPGQPASISCRSSQSLVHTNGNTYLHWYLQKPGQSPQLLIYMVSNRFSGVPDRFSGSGSGTDFTLKISRVEAEDVGVYYCSQSAHVPPLTFGQGTRLEIKR
notes: also called 4B10-Humanized; 4B10 humanized (H1/K1)
Molecule B8 came in with an EC50 with human CD52 (wildtype) [3] of 2.23 mg/L.

B9: chimeric 9D9 antibody (antibody, human IgG1, V domains shown)
VH: EVKLEESGGGLVQPGGSMKLSCAASGFTFSDAWMDWVRQSPEKGLELTAEIRNKAKNHATYYAESVKGRFTISRDDSKSRVYLQMNSLRTEDTGIYYCTTLDSWGQGTSVTVSS
VL: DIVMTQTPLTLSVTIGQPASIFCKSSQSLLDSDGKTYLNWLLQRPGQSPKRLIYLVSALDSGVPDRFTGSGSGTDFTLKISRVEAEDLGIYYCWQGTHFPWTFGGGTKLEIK
notes: also called 9D9-Chi; 9D9-chimeric
On to B9, for which the EC50 is 5 to 7 mg/L in the experiment with human CD52 (wildtype) [18] and 6.05 mg/L with human CD52 (wildtype) [3].

In general, EC50 refers to the concentration that produces a half-maximal response.
